Positions count from the first letter of the chain named.
B1: ABT2-65-13 (other)
VH: EVQLLESGGGLVQPGGSLRLSCAASGFTFREYQMGWVRQAPGKGLEWVSSISAMGNRTYYADSVKGRFTISRDDSKNTLYLQMNSLRAEDTAVYYCANNLVRTQSKMWMFDYWGQGTLVTVSS
notes: VH dAb
B2: ABT2-65-118 (other)
VH: B1 VH with R30A, E31T, Q33T, N98Q, T103L, Q104G, S105R, K106S, M107R
notes: VH dAb
B3: ABT2-65-117 (other)
VH: EVQLLESGGGLVRPGGSLRLSCVASGFTFEDYQMGWVRQAPGKGLEWISSISAMGNRTYYADSVKGRFTISRDDSKNTLYLQMNSLRAEDTAVYYCAQNLVRLGRSRWMFDYWGQGTLVTVSS
notes: VH dAb
B4: ABT2-65-46 (other)
VH: B1 VH with R30E, E31D, N98K, N99W, V101T, M107L, W108G, M109Y
notes: VH dAb
B5: ABT2-65-18 (other)
VH: B1 VH with R30G, E31D, N98E, R102Q, T103W, Q104R, S105I, K106G, M107A
notes: VH dAb
B6: ABT2-65-26 (other)
VH: B1 VH with R30E, E31D, N98Q, R102L, T103V, Q104R, K106G, M107Y
notes: VH dAb
B7: ABT2-65-15 (other)
VH: B1 VH with R30G, E31I, N98Q
notes: VH dAb
B8: ABT2-65-76 (other)
VH: B3 VH with R13Q, I48V, S49T
notes: VH dAb
B9: ABT2-65-32 (other)
VH: B3 VH with R13Q, V23A, I48V, R102A, L103V, G104S, S106G
notes: VH dAb
B10: ABT2-65-14 (other)
VH: B1 VH with S25P, R30P, E31Y, Q33P, N98K
notes: VH dAb
B11: ABT2-65-83 (other)
VH: B3 VH with R13Q, I48V, L86Q
notes: VH dAb
B12: ABT2-65-125 (other)
VH: B3 VH with R13Q
notes: VH dAb
B13: ABT2-65-24 (other)
VH: B1 VH with R30A, E31A, N98Q
notes: VH dAb
B14: ABT2-65-119 (other)
VH: B3 VH with R13Q, V23A, E30I, D31A, Q33P, I48V
notes: VH dAb
B15: ABT2-65-75 (other)
VH: B3 VH with R13Q, P14H, I48V, R105K
notes: VH dAb
B16: ABT2-65-90 (other)
VH: B3 VH with R13Q, L45Q, I48V, Q115H
notes: VH dAb
B17: ABT2-65-30 (other)
VH: B3 VH with Q3R, R13Q, V23A, I48V, G104N, S106R, R107D
notes: VH dAb
B18: ABT2-65-115 (other)
VH: B3 VH with R13Q, V23A, E30I, I48V
notes: VH dAb
B19: ABT2-65-22 (other)
VH: B1 VH with R30L, E31G, Q33P, R72P, N98K
notes: VH dAb
B20: ABT2-65-114 (other)
VH: B3 VH with R13Q, V23A, E30R, D31E, Q33M, I48V
notes: VH dAb
B21: ABT2-65-121 (other)
VH: B3 VH with R13Q, I48V, S52A, M54H
notes: VH dAb
B22: ABT2-65-23 (other)
VH: B1 VH with G16E, R30K, E31V, Q33P, N98K
notes: VH dAb
B23: ABT2-65-38 (other)
VH: B1 VH with R30E, E31D, S71Y, N98Q
notes: VH dAb
B24: ABT2-65-27 (other)
VH: B3 VH with R13Q, V23A, I48V, Q98E, G104W, R105K, S106G
notes: VH dAb
B25: ABT2-65-130 (other)
VH: B3 VH with R13Q, I48V, G55V
notes: VH dAb
B26: ABT2-65-126 (other)
VH: B3 VH with R13Q, L20I, A24T, I48V, Y80N, M109V
notes: VH dAb
B27: ABT2-65-37 (other)
VH: B1 VH with R30A, E31D, N98Q
notes: VH dAb
B28: ABT2-65-16 (other)
VH: B1 VH with R30E, E31D, N98E, R102K, T103W, Q104R, K106A, M107E
notes: VH dAb
B29: ABT2-65-28 (other)
VH: B3 VH with R13Q, V23A, I48V, R102Q, L103F, G104R, R107Q
notes: VH dAb
B30: ABT2-65-49 (other)
VH: B1 VH with E1G, R30E, E31D, N98Q
notes: VH dAb
B31: ABT2-65-84 (other)
VH: B3 VH with R13Q, T28S, G42R
notes: VH dAb
B32: ABT2-65-120 (other)
VH: B3 VH with R13Q, I48V, N56M
notes: VH dAb
B33: ABT2-65-124 (other)
VH: B3 VH with R13Q, I48V, M54V, T91I
notes: VH dAb
B34: ABT2-65-132 (other)
VH: B1 VH with R30E, E31D, N98E, T103L, Q104A, K106R, M107R
notes: VH dAb
B35: ABT2-65-87 (other)
VH: B3 VH with R13Q, G44D, I48V
notes: VH dAb
B36: ABT2-65-39 (other)
VH: B1 VH with R30E, E31D, N98G
notes: VH dAb
B37: ABT2-65-129 (other)
VH: B3 VH with R13Q, I48V, S50T, I51V, V64M
notes: VH dAb
B38: ABT2-65-33 (other)
VH: B3 VH with R13Q, V23A, I48V, L103Y, G104M, R105K, R107Q
notes: VH dAb
B39: ABT2-65-29 (other)
VH: B1 VH with R30E, E31D, N98Q, R102L, T103V, Q104R, S105V, K106G, M107W
notes: VH dAb
B40: ABT2-65-25 (other)
VH: B1 VH with R30E, E31D, N98Q, T103Y, Q104R, K106Y, M107Y, S122L
notes: VH dAb
B41: ABT2-65-127 (other)
VH: B3 VH with R13Q, I48V, S49T
notes: VH dAb
B42: ABT2-65-131 (other)
VH: B3 VH with R13Q, G15R, I48V, A53T, Y95H
notes: VH dAb
B43: ABT2-65-78 (other)
VH: B3 VH with R13Q, I48V, R105T, T117A
notes: VH dAb
B44: ABT2-65-31 (other)
VH: B3 VH with R13Q, V23A, I48V, R102K, L103I, G104M, S106L, R107K
notes: VH dAb

Target: T1, human IL-1β (human, UniProt P01584 117-269)
T1 construct: antigen of the ABT2 dAbs; also called hIL-1β; IL-1 beta
Test: IC50 column of Table 63; receptor binding assay presumed

Row | Binder | IC50 [nM]
1 | B1 | 20
2 | B2 | 4.6
3 | B3 | 10
4 | B4 | 30
5 | B5 | 20
6 | B6 | 20
7 | B7 | 100
8 | B8 | 8
9 | B9 | 4
10 | B10 | 1000
11 | B11 | 300
12 | B12 | 4
13 | B13 | 50
14 | B14 | 4
15 | B15 | 30
16 | B16 | 300
17 | B17 | 20
18 | B18 | 4
19 | B19 | 100
20 | B20 | 4
21 | B21 | 3.9
22 | B22 | 800

Row | Binder | IC50 [nM]
23 | B23 | 30
24 | B24 | 3.5
25 | B25 | 4.3
26 | B26 | 4.3
27 | B27 | 100
28 | B28 | 200
29 | B29 | 5
30 | B30 | 20
31 | B31 | 60
32 | B32 | 4.2
33 | B33 | 3.8
34 | B34 | 5
35 | B35 | 50
36 | B36 | 300
37 | B37 | 3.4
38 | B38 | 20
39 | B39 | 20
40 | B40 | 4
41 | B41 | 5.5
42 | B42 | 13.2
43 | B43 | 30
44 | B44 | 3
